Assay results as given in patent US20080261871A1, “Y2/Y4 Selective Receptor Agonists for Therapeutic Interventions” (priority 2004, published 2008).
Blank lines part the entries; values can stand above or below the molecule they belong to. No end group written: not given here.

Experiments:
in vivo [1] = experiment: in vivo; set-up: species or system cyno monkeys; conditions: cynomolgus monkey
Text: […]. […] […]. Apparently, the Y4 receptor activation—conceivably in the area postreama-prevents the emetic effect of the Y2 activation form the same compound. This property of a combined Y2-Y4 selective agonist is of great benefit for the treatment of obesity and associated conditions.

mice = experiment: Acute food intake in mice after subcutaneous injection; type: in vivo; conditions: mice fasted 16 hours, sc
Experimental: Food and water were available ad libitum except just before experiments (see below). The mice were acclimatized to subcutaneous injections during the week before experiments started. Mice were used once each in the experiments. Just before administration the peptides were diluted in physiological saline and administered in 100 μL volume for subcutaneous administration. Results are expressed as mean +/−SE. Analysis of variance followed by Bonferroni's test were used to assess differences among groups.
A standard diet was used (CLEA Japan, Inc., Tokyo, Japan) and food intake was measured by subtracting uneaten food from the initially premeasured food after administration and checking for food spillage.

anesthetized dogs = experiment: in vivo; conditions: dog, iv
Experimental: (§1) At the highest dose a plasma levels of 100 nM was obtained in the dogs.

in vivo [2] = conditions: dog, iv, 100 ug/kg
Experimental: as §1

human Y4 receptor = human Y4 receptor (human, UniProt P50391 1-375); experiment: cell-based or functional assay
human Y2 receptor = biological target: T1, human Y2 receptor (human, UniProt P49146 1-381); experiment: cell-based or functional assay
T1 sequence (looked up): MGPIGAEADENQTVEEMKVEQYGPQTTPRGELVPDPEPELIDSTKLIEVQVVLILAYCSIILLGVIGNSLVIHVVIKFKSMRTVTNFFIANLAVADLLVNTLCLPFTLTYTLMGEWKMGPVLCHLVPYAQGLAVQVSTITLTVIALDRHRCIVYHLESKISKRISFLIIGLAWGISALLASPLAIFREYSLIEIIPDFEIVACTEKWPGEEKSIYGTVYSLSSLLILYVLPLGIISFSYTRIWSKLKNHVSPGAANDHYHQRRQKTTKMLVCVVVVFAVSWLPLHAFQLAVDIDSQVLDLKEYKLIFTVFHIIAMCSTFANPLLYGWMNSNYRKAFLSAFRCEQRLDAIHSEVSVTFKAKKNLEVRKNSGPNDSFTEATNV

human Y1 receptor = biological target: T2, human Y1 receptor (human, UniProt P25929 1-384); experiment: cell-based or functional assay
T2 sequence (looked up): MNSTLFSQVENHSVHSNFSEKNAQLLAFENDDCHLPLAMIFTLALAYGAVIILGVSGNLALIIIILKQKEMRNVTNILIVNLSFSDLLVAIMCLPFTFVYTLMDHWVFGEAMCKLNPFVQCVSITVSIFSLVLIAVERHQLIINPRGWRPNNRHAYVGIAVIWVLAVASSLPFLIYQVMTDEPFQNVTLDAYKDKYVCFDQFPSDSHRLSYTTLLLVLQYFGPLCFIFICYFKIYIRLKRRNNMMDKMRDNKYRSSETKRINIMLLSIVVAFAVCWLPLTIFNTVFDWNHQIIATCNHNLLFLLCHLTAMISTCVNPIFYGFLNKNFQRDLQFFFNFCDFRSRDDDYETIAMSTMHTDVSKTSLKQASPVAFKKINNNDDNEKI

Sequence of human Y4 receptor (P50391 whole entry): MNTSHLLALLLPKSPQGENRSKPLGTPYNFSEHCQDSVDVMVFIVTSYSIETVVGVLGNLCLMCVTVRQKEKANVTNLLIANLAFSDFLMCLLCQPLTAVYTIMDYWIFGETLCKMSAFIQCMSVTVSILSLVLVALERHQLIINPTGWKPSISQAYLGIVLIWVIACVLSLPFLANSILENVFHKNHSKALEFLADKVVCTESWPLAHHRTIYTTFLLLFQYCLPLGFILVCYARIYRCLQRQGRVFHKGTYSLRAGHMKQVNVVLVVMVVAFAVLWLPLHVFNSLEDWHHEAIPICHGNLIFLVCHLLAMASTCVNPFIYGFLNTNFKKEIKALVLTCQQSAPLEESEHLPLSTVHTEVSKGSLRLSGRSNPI

level at time molar (in vivo [1]): 12 to 13 nM
plasma level dose relationship (anesthetized dogs): linear dose relationship
level at time molar (in vivo [2]): 100 nM
Molecule: CC[C@H](C)[C@H](NC(=O)[C@H](Cc1ccc(O)cc1)NC(=O)[C@H](CCCNC(=N)N)NC(=O)[C@H](CCCNC(=N)N)NC(=O)[C@H](CC(C)C)NC(=O)[C@H](CC(=O)O)NC(=O)[C@H](C)NC(=O)[C@H](C)NC(=O)[C@H](Cc1ccc(O)cc1)NC(=O)[C@H](CCC(N)=O)NC(=O)[C@H](C)NC(=O)[C@H](CCSC)NC(=O)[C@H](CCC(N)=O)NC(=O)[C@H](CCC(=O)O)NC(=O)[C@@H]1CCCN1C(=O)[C@@H](NC(=O)[C@H](C)NC(=O)[C@H](CC(N)=O)NC(=O)[C@H](CC(=O)O)NC(=O)CNC(=O)[C@@H]1CCCN1C(=O)[C@H](Cc1ccc(O)cc1)NC(=O)[C@@H](NC(=O)[C@@H]1CCCN1C(=O)[C@H](CCC(=O)O)NC(=O)[C@H](CC(C)C)NC(=O)[C@@H]1CCCN1C(=O)[C@H](C)N)C(C)C)[C@@H](C)O)C(=O)N[C@@H](CC(N)=O)C(=O)N[C@@H](CCSC)C(=O)N[C@@H](CC(C)C)C(=O)N[C@H](C(=O)N[C@@H](CCCNC(=N)N)C(=O)N[C@@H](CCC(N)=O)C(=O)N[C@@H](CCCNC(=N)N)C(=O)N[C@@H](Cc1ccc(O)cc1)C(N)=O)[C@@H](C)O [[Gln34]PP]
duration of inhibition of food intake (mice; 1 μg per animal): more than 8 hours
inhibitory effect on food intake compared with PYY3-36 (mice; 1 and 10 μg per animal): more pronounced and long-lasting inhibitory effect

EC50, inositol phosphate turnover (human Y4 receptor): 4.5 nM
EC50, inositol phosphate turnover (human Y2 receptor): 8.6 nM
EC50, inositol phosphate turnover (human Y1 receptor): 102 nM
B1: [Leu30,Gln34]PP (peptide)
peptide: APLEPVYPGDNATPEQMAQYAADLRRYINLLTRQRY-NH2

EC50, inositol phosphate turnover (human Y4 receptor): 9.2 nM
EC50, inositol phosphate turnover (human Y2 receptor): 6.1 nM
EC50, inositol phosphate turnover (human Y1 receptor): 130 nM
B2: [His26,Gln34]PP (peptide)
peptide: APLEPVYPGDNATPEQMAQYAADLRHYINMLTRQRY-NH2
